Read-outs that look alike come from different tables or passages of the source.

Results on 12 molecules are retold here after patent publication US20210115124A1 (Genentech, published 2021).

The target in assay [1] is T1, human VEGF (hVEGF) (human, UniProt P15692 181-395).
T1 construct: also called VEGF-A
T1 sequence: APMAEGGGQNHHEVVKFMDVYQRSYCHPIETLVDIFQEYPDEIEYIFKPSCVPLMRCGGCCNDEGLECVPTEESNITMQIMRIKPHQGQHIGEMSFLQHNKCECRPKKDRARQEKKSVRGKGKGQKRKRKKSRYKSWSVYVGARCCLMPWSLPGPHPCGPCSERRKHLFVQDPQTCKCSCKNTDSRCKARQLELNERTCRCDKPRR
Put plainly: SPR.

Assay [2] addresses T1, human VEGF (hVEGF). Description: SPR. The source holds these as a separate data set.
The target in assay [3] is T2, VEGF (as used in the HUVEC migration assay) (Homo sapiens (Human), UniProt P15692 181-395).
T2 sequence: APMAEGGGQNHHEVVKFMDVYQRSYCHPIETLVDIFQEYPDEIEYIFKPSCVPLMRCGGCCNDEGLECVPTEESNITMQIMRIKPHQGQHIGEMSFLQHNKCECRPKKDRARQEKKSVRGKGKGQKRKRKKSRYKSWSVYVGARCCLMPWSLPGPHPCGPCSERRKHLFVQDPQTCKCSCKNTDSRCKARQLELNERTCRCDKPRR
Put plainly: cell-based or functional assay.

For assay [4], the target named is human VEGF165 (human, UniProt P15692-4 27-191). Description: cell-based or functional assay.
Assay [5] has as its target T1, human VEGF (hVEGF). Put plainly: SPR. This is another data set of the same source.
For assay [6], the target named is T1, human VEGF (hVEGF). Description: SPR single-cycle.
Assay [7] deals with T1, human VEGF (hVEGF). Description: BIACORE SPR on immobilised hVEGF; label beside the mutation on the structure of the VEGF-bound G6 Fab (PDB 2FJG).
The target of assay [8] is T1, human VEGF (hVEGF). The assay is described as above. The source holds these as a separate data set.
Assay [9] deals with T1, human VEGF (hVEGF). Put plainly: SPR. This is another data set of the same source.
Assay [10] deals with T1, human VEGF (hVEGF). Put plainly: SPR. The source holds these as a separate data set.

B1: G6.31 AAEE (LC-N94A.LC-F83A.HC-A40E.HC-T57E) (Fab, V domains shown)
VH: EVQLVESGGGLVQPGGSLRLSCAASGFTISDYWIHWVRQEPGKGLEWVAGITPAGGYEYYADSVKGRFTISADTSKNTAYLQMNSLRAEDTAVYYCARFVFFLPYAMDYWGQGTLVTVSS
VL: DIQMTQSPSSLSASVGDRVTITCRASQDVSTAVAWYQQKPGKAPKLLIYSASFLYSGVPSRFSGSGSGTDFTLTISSLQPEDAATYYCQQGYGAPFTFGQGTKVEIK
notes: Fab; also called HC-A40E, HC-T57E, LC-F83A, LC-N94A
In [1], B1 registered a Kd of 0.584 nM, a dissociation rate constant (koff) of 0.000741 s⁻¹ and an on-rate (kon) of 1.27e+06 M⁻¹ s⁻¹. In [2], the Kd is 0.58 nM, the koff was determined as 0.000741 s⁻¹ and the on-rate (kon) was determined as 1.27e+06 M⁻¹ s⁻¹. Further, the “IC50 relative to G6.31, VEGF-induced HUVEC migration” value in assay [3] came to 0.9 fold.

B2: HA100K-G6.31 AARR (other)
VH: EVQLVESGGGLVQPGGSLRLSCAASGFTISDYWIHWVRQAPGKGLEWVAGITPAGGYTRYADSVKGRFTISADTSKNTAYLQMRSLRAEDTAVYYCARFVFFLPYAMDYWGQGTLVTVSS
VL: DIQMTQSPSSLSASVGDRVTITCRASQDVSTAVAWYQQKPGKAPKLLIYSASFLYSGVPSRFSGSGSGTDFTLTISSLQPEDAATYYCQQGYGAPFTFGQGTKVEIK
modifications: free hinge cysteine of the Fab-C heavy chain linked through maleimide to linear 100 kDa hyaluronic acid
On to B2, for which the “fold increase in potency against the unconjugated parent Fab, pKDR assay” value in [4] was ~7 fold.

B3: G6.31 LC-L73G (Fab, V domains shown)
VH: EVQLVESGGGLVQPGGSLRLSCAASGFTISDYWIHWVRQAPGKGLEWVAGITPAGGYTYYADSVKGRFTISADTSKNTAYLQMNSLRAEDTAVYYCARFVFFLPYAMDYWGQGTLVTVSS
VL: DIQMTQSPSSLSASVGDRVTITCRASQDVSTAVAWYQQKPGKAPKLLIYSASFLYSGVPSRFSGSGSGTDFTGTISSLQPEDFATYYCQQGYGNPFTFGQGTKVEIK
notes: Fab
Regarding B3, in [5], the “fold increase in affinity compared to wild-type G6.31” value (from here on “fold increase in affinity”) was ~1.6 fold. Besides, in assay [6], the “Fold difference (relative to G6.31)” value came to 1.4 fold, the Kd worked out at 1.09 nM, the koff came out at 0.000644 s⁻¹ and the on-rate constant (kon) was determined as 589000 M⁻¹ s⁻¹. The “fold change in binding affinity (Kd) compared to G6.31” value (“fold change in binding affinity (Kd)” below) in assay [7] is 2 x.

B4: G6.31 HC-T57E (Fab, name in Kabat numbering, V domains shown)
VH: EVQLVESGGGLVQPGGSLRLSCAASGFTISDYWIHWVRQAPGKGLEWVAGITPAGGYEYYADSVKGRFTISADTSKNTAYLQMNSLRAEDTAVYYCARFVFFLPYAMDYWGQGTLVTVSS
VL: DIQMTQSPSSLSASVGDRVTITCRASQDVSTAVAWYQQKPGKAPKLLIYSASFLYSGVPSRFSGSGSGTDFTLTISSLQPEDFATYYCQQGYGNPFTFGQGTKVEIK
notes: Fab
As to B4, in assay [5], the “fold increase in affinity” value lay within 8 to 9 fold. Further, in assay [6], the “Fold difference (relative to G6.31)” value was determined as 7.7 fold, binding was characterised by a dissociation constant (Kd) of 0.2 nM, the koff was 0.000402 s⁻¹ and the on-rate (kon) was 1.93e+06 M⁻¹ s⁻¹. Besides, in [8], the “fold change in binding affinity (Kd)” value was 8 x.

B5: G6.31 LC-N94A.LC-F83A (Fab, V domains shown)
VH: EVQLVESGGGLVQPGGSLRLSCAASGFTISDYWIHWVRQAPGKGLEWVAGITPAGGYTYYADSVKGRFTISADTSKNTAYLQMNSLRAEDTAVYYCARFVFFLPYAMDYWGQGTLVTVSS
VL: DIQMTQSPSSLSASVGDRVTITCRASQDVSTAVAWYQQKPGKAPKLLIYSASFLYSGVPSRFSGSGSGTDFTLTISSLQPEDAATYYCQQGYGAPFTFGQGTKVEIK
notes: Fab; also called LC-F83A, LC-N94A; LCcombo5
In the case of B5, the dissociation constant Kd in [9] stood at 1.43 nM; in [1], 1.71 nM; in [2], 1.71 nM. The koff in assay [9] was determined as 0.000766 s⁻¹; in assay [1] it was 0.00111 s⁻¹; in assay [2], 0.00111 s⁻¹. Moreover, the on-rate (kon) was found to be 537000 M⁻¹ s⁻¹ in assay [9], 648000 M⁻¹ s⁻¹ in assay [1] and 648000 M⁻¹ s⁻¹ in assay [2]. Further, the “IC50 relative to G6.31, VEGF-induced HUVEC migration” value in [3] stood at 5.1 fold.

B6: G6.31 LC-Q89T (Fab, V domains shown)
VH: EVQLVESGGGLVQPGGSLRLSCAASGFTISDYWIHWVRQAPGKGLEWVAGITPAGGYTYYADSVKGRFTISADTSKNTAYLQMNSLRAEDTAVYYCARFVFFLPYAMDYWGQGTLVTVSS
VL: DIQMTQSPSSLSASVGDRVTITCRASQDVSTAVAWYQQKPGKAPKLLIYSASFLYSGVPSRFSGSGSGTDFTLTISSLQPEDFATYYCTQGYGNPFTFGQGTKVEIK
notes: Fab
For B6, in assay [6], the “Fold difference (relative to G6.31)” value amounted to 3.7 fold, binding was characterised by a dissociation constant (Kd) of 0.42 nM, the koff came out at 0.000493 s⁻¹ and the association rate constant (kon) was determined as 1.17e+06 M⁻¹ s⁻¹. Moreover, in assay [7], the “fold change in binding affinity (Kd)” value came out at 4 x.

B7: G6.31 HC-N82aR (Fab, name in Kabat numbering, V domains shown)
VH: EVQLVESGGGLVQPGGSLRLSCAASGFTISDYWIHWVRQAPGKGLEWVAGITPAGGYTYYADSVKGRFTISADTSKNTAYLQMRSLRAEDTAVYYCARFVFFLPYAMDYWGQGTLVTVSS
VL: DIQMTQSPSSLSASVGDRVTITCRASQDVSTAVAWYQQKPGKAPKLLIYSASFLYSGVPSRFSGSGSGTDFTLTISSLQPEDFATYYCQQGYGNPFTFGQGTKVEIK
notes: Fab
As for B7, the “fold increase in affinity” value in assay [5] was ~6.6 fold. In assay [10], the “Fold improved (relative to WT)” value turned out to be 6.8 fold, the Kd worked out at 0.077 nM, the koff stood at 0.000124 s⁻¹ and the on-rate constant (kon) amounted to 1.62e+06 M⁻¹ s⁻¹. In addition, in assay [6], the “Fold difference (relative to G6.31)” value stood at 6.7 fold, the Kd amounted to 0.23 nM, the koff was 0.000322 s⁻¹ and the kon is 1.39e+06 M⁻¹ s⁻¹. Further, the “fold change in binding affinity (Kd)” value in assay [8] was 7 x.

B8: G6.31 LC-D28R (Fab, V domains shown)
VH: EVQLVESGGGLVQPGGSLRLSCAASGFTISDYWIHWVRQAPGKGLEWVAGITPAGGYTYYADSVKGRFTISADTSKNTAYLQMNSLRAEDTAVYYCARFVFFLPYAMDYWGQGTLVTVSS
VL: DIQMTQSPSSLSASVGDRVTITCRASQRVSTAVAWYQQKPGKAPKLLIYSASFLYSGVPSRFSGSGSGTDFTLTISSLQPEDFATYYCQQGYGNPFTFGQGTKVEIK
notes: Fab
With B8, in [6], the “Fold difference (relative to G6.31)” value amounted to 2.8 fold, binding was characterised by a dissociation constant (Kd) of 0.56 nM, the off-rate constant (koff) stood at 0.000655 s⁻¹ and the association rate constant (kon) amounted to 1.17e+06 M⁻¹ s⁻¹. In assay [7], the “fold change in binding affinity (Kd)” value was 3 x.

B9: G6.31 LC-F83A (Fab, V domains shown)
VH: EVQLVESGGGLVQPGGSLRLSCAASGFTISDYWIHWVRQAPGKGLEWVAGITPAGGYTYYADSVKGRFTISADTSKNTAYLQMNSLRAEDTAVYYCARFVFFLPYAMDYWGQGTLVTVSS
VL: DIQMTQSPSSLSASVGDRVTITCRASQDVSTAVAWYQQKPGKAPKLLIYSASFLYSGVPSRFSGSGSGTDFTLTISSLQPEDAATYYCQQGYGNPFTFGQGTKVEIK
notes: Fab
For B9, the “fold increase in affinity” value in assay [5] amounted to 3 fold. In assay [10], the “Fold improved (relative to WT)” value amounted to 4 fold; the affinity, expressed as Kd, was 0.132 nM; the off-rate constant (koff) worked out at 0.000218 s⁻¹; the on-rate (kon) was 1.65e+06 M⁻¹ s⁻¹. In assay [6], the “Fold difference (relative to G6.31)” value was 3.1 fold, the Kd worked out at 0.5 nM, the koff was 0.000433 s⁻¹ and the kon turned out to be 855000 M⁻¹ s⁻¹. Further, the “fold change in binding affinity (Kd)” value in assay [7] amounted to 3 x.

B10: G6.31 HC-Y58R (Fab, name in Kabat numbering, V domains shown)
VH: EVQLVESGGGLVQPGGSLRLSCAASGFTISDYWIHWVRQAPGKGLEWVAGITPAGGYTRYADSVKGRFTISADTSKNTAYLQMNSLRAEDTAVYYCARFVFFLPYAMDYWGQGTLVTVSS
VL: DIQMTQSPSSLSASVGDRVTITCRASQDVSTAVAWYQQKPGKAPKLLIYSASFLYSGVPSRFSGSGSGTDFTLTISSLQPEDFATYYCQQGYGNPFTFGQGTKVEIK
notes: Fab
Regarding B10, the “fold increase in affinity” value in assay [5] fell in the range of 8 to 9 fold. Also, in [10], the “Fold improved (relative to WT)” value is 6.9 fold, the Kd stood at 0.076 nM, the koff worked out at 0.000184 s⁻¹ and the kon amounted to 2.42e+06 M⁻¹ s⁻¹. Further, in [6], the “Fold difference (relative to G6.31)” value stood at 9.1 fold, the dissociation constant (Kd) was 0.17 nM, the off-rate (koff) worked out at 0.000255 s⁻¹ and the kon was found to be 1.48e+06 M⁻¹ s⁻¹. Also, in [8], the “fold change in binding affinity (Kd)” value is 9 x.

B11: G6.31 LC-S50M (Fab, V domains shown)
VH: EVQLVESGGGLVQPGGSLRLSCAASGFTISDYWIHWVRQAPGKGLEWVAGITPAGGYTYYADSVKGRFTISADTSKNTAYLQMNSLRAEDTAVYYCARFVFFLPYAMDYWGQGTLVTVSS
VL: DIQMTQSPSSLSASVGDRVTITCRASQDVSTAVAWYQQKPGKAPKLLIYMASFLYSGVPSRFSGSGSGTDFTLTISSLQPEDFATYYCQQGYGNPFTFGQGTKVEIK
notes: Fab
On to B11, for which, in assay [6], the “Fold difference (relative to G6.31)” value stood at 1.2 fold, the Kd was 1.31 nM, the koff amounted to 0.000611 s⁻¹ and the kon was 467000 M⁻¹ s⁻¹. Besides, the “fold change in binding affinity (Kd)” value in assay [7] came out at 1 x.

B12: G6.31 LC-Y36G (Fab, V domains shown)
VH: EVQLVESGGGLVQPGGSLRLSCAASGFTISDYWIHWVRQAPGKGLEWVAGITPAGGYTYYADSVKGRFTISADTSKNTAYLQMNSLRAEDTAVYYCARFVFFLPYAMDYWGQGTLVTVSS
VL: DIQMTQSPSSLSASVGDRVTITCRASQDVSTAVAWGQQKPGKAPKLLIYSASFLYSGVPSRFSGSGSGTDFTLTISSLQPEDFATYYCQQGYGNPFTFGQGTKVEIK
notes: Fab
B12: in assay [6], the “Fold difference (relative to G6.31)” value is 0.6 fold, binding was characterised by a dissociation constant (Kd) of 2.47 nM, the koff stood at 0.000558 s⁻¹ and the on-rate (kon) was 225000 M⁻¹ s⁻¹. Besides, the “fold change in binding affinity (Kd)” value in assay [7] came out at 0.5 x.
